What was measured:
cancer cells [1] = test: ELANE internalization by cancer cells and effect of endocytosis inhibitor; format: cell-based
Experimental: (§1) FIGS. 1A-1K. ELANE cleaves CD95 to selectively kill cancer cells. (A): Heatmap summary of ELANE's effects on survival, stress, and apoptosis pathways in cancer cells and healthy cells. (B-C): Cancer cells were treated with ELANE (100 nM) and CD95 cleavage was assessed by western blotting using anti-N-terminal (B) or anti-C-terminal antibodies (C). *, lower molecular weight CD95 fragment. (D): Cancer cells or non-cancer cells were transduced to overexpress CD95 proteins, and effects on ELANE-mediated apoptosis were quantified by ANXAS at 30 min. n=2/group. See FIG. 1I for transduction and CD95 over-expression. (E): Cleavage of recombinant human CD95 N-terminal (aa 1-173) or C-terminal (aa 212-335) proteins by ELANE was assessed by SDS-PAGE and Coomassie blue staining. (F): Bands from (E) were digested with trypsin and analyzed by mass spectrometry to identify putative ELANE cleavage sites (i.e., peptides with non-tryptic ends). Major non-tryptic peptides were quantified by ion chromatograms. (G): Schematic of ELANE cleavage sites in CD95. […] (H): Cleavage of recombinant peptides corresponding to aa 214-231 and aa 317-335 in CD95 by ELANE was monitored by mass spectrometry. (I): Cancer cells or non-cancer cells were treated with fluorescein-labeled ELANE for 10 min and uptake was visualized by immunofluorescence. (J): ELANE catalytic activity in cancer cell lysates following exposure to ELANE for 30 mins in the presence and absence of Dynasore (60 μM endocytosis inhibitor). Effect of Dynasore on cancer cell killing capability of ELANE (measured by calcein-AM). n=6/group. (K): Cancer cells or non-cancer cells were transduced to overexpress various CD95 proteins, and cell viability in the absence of ELANE was determined by calcein-AM. n=10/group. *, p<0.05 Student's t-test.

[2] = system: human and murine cancer cells; test: CD95 overexpression, ELANE-mediated apoptosis (ANXA5); format: cell-based; settings: ELANE 40 nM, ANXA5 at 30 min
Experimental: FIGS. 2A-2D Overexpressing CD95 proteins accelerates cancer cell killing by ELANE. Polycistronic adenoviral vectors were prepared to express the human and mouse CD95 sequences followed by the Encephalomyocarditis virus (EMCV) internal ribosome entry site and dTomato sequence under the control of the cytomegalovirus (CMV) promoter. Human and murine cancer cells or non-cancer cells were transduced to over-express full-length CD95, N-terminal CD95 (human: aa 1-209; mouse: aa 1-204), or C-terminal CD95 (human: aa 212-335; mouse: aa 204-327). (A): Transduction efficiency quantified by dTomato (Left). CD95 levels in dTomato− and dTomato+ cells quantified by geometric mean (MFI) (Middle). ANXA5 levels in dTomato− and dTomato+ cells 30 min after treatment with ELANE (40 nM) (Right). Representative data for A549 cells are shown. (B-C): Quantification of transduction efficiency (B) and relative CD95 overexpression (C) for cancer cells and non-cancer cells. (D): Quantification of ANXA5 levels following ELANE treatment (40 nM, 30 min) for mouse cancer cell lines (E0771, B16F10). *, p<0.05 Student's t-test.
(§2) In vitro cell viability assays. […] Luminescence was measured using a Victor X3 luminometer (PerkinElmer).
(§3) CD95 overexpression studies. Polycistronic adenoviral vectors were prepared to express the human and mouse CD95 sequences followed by the Encephalomyocarditis virus (EMCV) internal ribosome entry site and dTomato sequence under the control of the cytomegalovirus (CMV) promoter (VectorBuilder). Human and murine cancer cells or normal or non-cancer cells were transduced to over-express full-length CD95, N-terminal CD95 (human: aa 1-209; mouse: aa 1-204), C-terminal CD95 (human: aa 212-335; mouse: aa 204-327), or C-terminal CD95 that mimicked ELANE cleavage at site 1 (human: aa 221-335), site 2 (human: aa 212-331), or both sites (aa 221-331). Cancer cells or normal or non-cancer cells were transduced with adenoviruses at an MOI of 50-250 depending on cell type, and expression of dTomato and CD95 (human: 558814; mouse, mouse: 565130, BD Biosciences) were confirmed by flow cytometry. A vector encoding GFP (Vector Builders) was used as a control.

MDA-MB-231 cells = test: Doxycycline-inducible Tet-on expression of C or C1-2 in MDA-MB-231 cells; format: cell-based, human; settings: Tet-on MDA-MB-231, doxycycline 0.2 or 2 μg/mL, 72 h, Calcein AM
Experimental: FIG. 4 Inducible Expression System. Scheme of doxycycline inducible Tet-on system to express either C (aa. 157-335) or C1-2 (aa. 221-331). C1-2 (DD containing fragment) upon addition of doxycycline (both in vitro and in vivo).
FIG. 5 Confirmation of C1-2 expression and cancer cell selective killing. (A) Tet-on C or C1-2 transduced MDA-MB-231 cells were treated with 2 μg/mL doxycycline (2 μg/mL) for 24 h. Cell lysates were collected for western blot. Confirming the expression of C or C1-2 expression. (B) Tet-on C or C1-2 transduced MDA-MB-231 cells were treated with 0.2 or 2 μg/mL doxycycline for 72 h. Cell viability was measured by Calcein AM. […] (C) Tet-on C1-2 transduced MCF10A cells were treated with 2 μg/mL doxycycline. Cell viability was measured at various time points by Calcein AM.
FIG. 6 In vitro testing MDA-MB-231 cell death post C1-2 induction. (A) Various single colony of Tet-on C1-2 transduced MDA-MB-231 cells were treated with 2 μg/mL doxycycline (2 μg/mL) for 72 h. Cell viability was measured by Calcein AM. Different colonies have different susceptibility of death post C1-2 induction. (B) C1-2 expression of various single colony of Tet-on C1-2 transduced MDA-MB-231 cells post doxycycline treatment were measured by western blot (C), and the level at 24 h was correlated with % death (normalized by full length). […] (C) Immunoblot of C1-2 and full length (FL) CD95 expression for various colony.

cancer cells [3] = test: CD95 protein overexpression in cancer cells, viability in absence of ELANE (calcein-AM); format: cell-based, human; settings: transient overexpression
Experimental: as §1, §2, §3

[4] = system: human/murine cancer cells; test: In vitro cell viability of cancer cells (calcein-AM, CASP3, ANXA5); format: cell-based; settings: catalytic inactivation confirmed
From the text: Cell lines. The ovarian cancer cell lines—CAOV3, OVCAR3, OVCAR4, OVCAR5, A2780, A2780/CP70, HeyA8, TykNu, SKOV3, ID8, and ID8p53-/- were a gift from Dr. Ernst Lengyel, University of Chicago. The breast cancer cell lines—MDA-MB-231, MDA-MB-231.BM1, MCF-7, M6C, E0771, and E0771.LMB were a gift from Dr. Marsha Rosner, University of Chicago. The colon carcinoma cell line RKO, glioblastoma cancer cell line T98G, osteosarcoma cell lines U-2OS and Saos-2, and the hepatocellular carcinoma cell line HepG2 were a gift from Dr. Kay McLeod, University of Chicago. The lung cancer cell line NCI-H552 was a gift from Dr. Stephanie Huang, University of Chicago, and A549 and LLC1 cells were purchased from ATTC. The melanoma cell lines—B16F10, Mel888, Mel1106, and SK-MEL-28 cells were a gift from Dr. Thomas Gajewski, University of Chicago. The pancreatic cancer cell line PANC1 was a gift from Dr. Yamuna Krishnan, University of Chicago. The leukemia cell line K562 was a gift from Dr. Amittha Wickrema, University of Chicago.
The prostate cancer cell lines—CWR22Rv1, LAPC4, and LNCaP were a gift from Dr. Donald Vander Griend, University of Chicago. The neuroblastoma cell lines—SK-N-BE(2) and NBL-WN cells were a gift from Dr. Lucy Godley, University of Chicago.
Neutrophil media collections. Freshly isolated human or murine neutrophils were plated in serum-free DMEM for 24 h. Conditioned media was collected, spun at 500×g for 5 min, and media protein levels were determined with a Bradford assay (Biorad).
PMN media manipulations. For boiling, PMN media was boiled at 95° C. for 5 min and spun at 15,000×g for 10 min to remove precipitated proteins. For dialysis, PMN media was placed into a Slide-a-Lyzer™ cassette (3.5 kDa cutoff, ThermoFisher Scientific) and dialyzed against 2×4L of PBS at 4° C. for 4 h. For PMSF-inactivation, PMN media was treated with PMSF (1 mM, Sigma) or A1AT (42 nM, Athens Research & Technology) and incubated at room temperature for up to 2 h. Residual PMSF was eliminated with a PD-10 desalting column (GE Healthcare Life). Inhibition of ELANE catalytic activity was confirmed using a chromogenic substrate activity assay (see below). For serum-spiking experiments, human, mouse, or fetal bovine serum (1% or 10%) was added to PMN media prior to or after exposing cancer cells. For immune-depletion studies, ELANE or ECP were immunoprecipitated using anti-ELANE (N2C3, GeneTx) or anti-ECP (MB S2535165, MyBioSource) coupled to Pierce™ Protein A/G Magnetic Beads (ThermoFisher Scientific).
as §2

[5] = system: tumors (MDA-MB-231, A549, MEL888, M1, 4195, E0771, LLC1, B16F10); test: Intra-tumoral treatment of tumor models (xenograft, PDX, syngeneic); format: in vivo, mice; settings: E0771 TNBC model, IT, 12 μg/day
Experimental: Tumor inoculation and treatment. MDA-MB-231 cells (2×10^6), A549 cells (2×10^6) with Matrix Type 3), or MEL888 cells (2×10^6 with Matrix Type 3) were injected into athymic nude mice (Charles River); M1 or 4195 cells (50,000) were injected into NOD.SCID mice (JAX); and E0771 cells (0.5×10^6), LLC1 cells (0.5×10^6), or B16F10 cells (1×10^6), were injected into C57BL/6 mice (JAX). For TNBC models (MDA-MB-231, E0771, M1, 4195), cells were injected into the 4th mammary fat pad of the right ventral side. For all other models (A549, LLC1, MEL888, B16F10), cells were injected into the flank. Once tumors reached ˜100 mm^3, ELANE or PMSF-ELANE (11.6 μg/100 μL), or neutrophil medias or HSA (50 μg/100 μL) were delivered IT once/day for 5 days. Tumor volume was assessed by calipers, and experiments were terminated when tumor volume in control mice reached >1000 mm^3.
Tumor immunohistochemistry. Tumors were fixed in 4% paraformaldehyde in PBS for 24 h, embedded in paraffin blocks, and sectioned (5 μm). Slides were stained with cCASP3 (9661) and cPARP (9625) antibodies from Cell Signaling Technology. Signals were developed using the VECTASTAIN ABC kit (Vector Laboratories) or fluorescently-labeled secondary antibodies (melanoma models). For the TUNEL assay, staining was performed with the DeadEnd™ colorimetric or fluorometric TUNEL systems (Promega). Cell nuclei were labeled with haematoxylin or Hoechst 33342 (ThermoFisher Scientific). Images were obtained with a Nikon Eclipse Ti2 microscope and analyzed using NIS-Elements software.

O=C(N/N=C/c1ccc(O)c(O)c1)c1cc2ccccc2cc1O [Dynasore]
effect on PMN media-mediated killing (cancer cells [1]; Dynasore): protected cancer cells from PMN media-mediated killing | effect on ELANE uptake (cancer cells [1]; Dynasore 60 μM): attenuated ELANE uptake | effect on ELANE-induced apoptosis of cancer cells (cancer cells [1]; Dynasore 60 μM): protected cancer cells from apoptosis

B1: C peptide: C-terminal CD95 peptide containing both cleavage sites (aa. 212-335); Tet-on C printed as aa. 157-335 (protein)
chain: SPTLNPETVAINLSDVDLSKYITTIAGVMTLSQVKGFVRKNGVNEAKIDEIKNDNVQDTAEQKVQLLRNWHQLHGKKEAYDTLIKDLKKANLCTLAEKIQTIILKDITSDSENSNFRNEIQSLV
effect of overexpression on ELANE-mediated killing [2]: accelerated ELANE-mediated killing in human cancer cells | effect of overexpression on ELANE-mediated killing ([2]; listed as aa. 212-335 of SEQ ID NO:1): accelerated ELANE-mediated killing in both human and murine cancer cells | cell death/apoptosis on doxycycline-induced expression (MDA-MB-231 cells): did not | cell death/apoptosis on doxycycline-induced expression (MDA-MB-231 cells; listed as C): not C caused MDA-MB-231 cell death | cancer cell death/toxicity on expression in the absence of ELANE (cancer cells [3]): not toxic

B2: PMSF-ELANE: ELANE inactivated with PMSF (or A1AT) (protein, UniProt P08246 30-267, looked up)
Neutrophil elastase: IVGGRRARPHAWPFMVSLQLRGGHFCGATLIAPNFVMSAAHCVANVNVRAVRVVLGAHNLSRREPTRQVFAVQRIFENGYDPVNLLNDIVILQLNGSATINANVQVAQLPAQGRRLGNGVQCLAMGWGLLGRNRGIASVLQELNVTVVTSLCRRSNVCTLVRGRQAGVCFGDSGSPLVCNGLIHGIASFVRGGCASGLYPDAFAPVAQFVNWIDSIIQRSEDNPCPHPRDPDPASRTH
modifications: PMSF-inactivated
cancer cell killing after inactivation with PMSF or A1AT [4]: could no longer kill cancer cells | therapeutic benefit, dose finding [5]: did not produce unexpected worsening

B3: fluorescein-labeled ELANE: fluorescein-labeled ELANE used for uptake (protein, UniProt P08246 30-267, looked up)
Neutrophil elastase: IVGGRRARPHAWPFMVSLQLRGGHFCGATLIAPNFVMSAAHCVANVNVRAVRVVLGAHNLSRREPTRQVFAVQRIFENGYDPVNLLNDIVILQLNGSATINANVQVAQLPAQGRRLGNGVQCLAMGWGLLGRNRGIASVLQELNVTVVTSLCRRSNVCTLVRGRQAGVCFGDSGSPLVCNGLIHGIASFVRGGCASGLYPDAFAPVAQFVNWIDSIIQRSEDNPCPHPRDPDPASRTH
modifications: fluorescein label
notes: fluorescein-labeled ELANE used for uptake
uptake by cancer cells (cancer cells [1]; 10 min, immunofluorescence): rapidly internalized
